Data on 20 molecules can be found in patent publication US20250084188A1 (CHUNGBUK NATIONAL UNIVERSITY INDUSTRY ACADEMIC COOPERATION …, published 2025).

First the molecules themselves.
B1: D2 (IgG) (antibody, V domains shown)
VH: EVQLVESGGGLVQPGGSLRLSCAASGFTFSSYAMHWVRQAPGKGLEWVSAISSSSGTIYYADSVKGRFTISRDNSKNTLYLQMNSLRAEDTAVYYCAKDFGAVFDYWGQGTLVTVSS
VL: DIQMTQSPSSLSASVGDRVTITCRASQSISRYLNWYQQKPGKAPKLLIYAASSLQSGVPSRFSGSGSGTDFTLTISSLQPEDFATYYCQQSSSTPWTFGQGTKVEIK
notes: Converted into the IgG form of human antibodies, expressed in ExpiCHO-S
B2: F4 (IgG) (antibody, V domains shown)
VH: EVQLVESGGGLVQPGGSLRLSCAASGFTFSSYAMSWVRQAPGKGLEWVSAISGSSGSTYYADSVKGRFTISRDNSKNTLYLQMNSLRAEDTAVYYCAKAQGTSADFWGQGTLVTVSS
VL: DIQMTQSPSSLSASVGDRVTITCRASQSISRWLNWYQQKPGKAPKLLIYAASRLQSGVPSRFSGSGSGTDFTLTISSLQPEDFATYYCQQSYSTPWTFGQGTKVEIK
notes: as for B1
B3: C5 (IgG) (antibody, V domains shown)
VH: EVQLVESGGGLVQPGGSLRLSCAASGFTFSSYAMSWVRQAPGKGLEWVSSISSSSGTTHYADSVKGRFTISRDNSKNTLYLQMNSLRAEDTAVYYCAKGGAFDYWGQGTLVTVSS
VL: B2 VL with S28D, R53T, T94F, W96L
notes: as for B1
B4: 1E12 (IgG) (antibody, V domains shown)
VH: EVQLVESGGGLVQPGGSLRLSCAASGFTFSSYAMHWVRQAPGKGLEWVSAISSSGGTKYYADSVKGRFTISRDNSKNTLYLQMNSLRAEDTAVYYCAKGLQGGAGAFDIWGQGTLVTVSS
VL: B2 VL with R31N, W32Y, A51T, R53T, Q55H, T94F
notes: as for B1
B5: H7 (IgG) (antibody, V domains shown)
VH: EVQLVESGGGLVQPGGSLRLSCAASGFTFSSYGMHWVRQAPGKGLEWVSGISSSGGSKYYADSVKGRFTISRDNSKNTLYLQMNSLRAEDTAVYYCAKHGHQQMDFWGQGTLVTVSS
VL: B2 VL with R31S, S91T, T94F
notes: as for B1
B6: A7 (IgG) (antibody, V domains shown)
VH: B1 VH with S31D, H35S, A50G, S55G, D99A, F100I, A102S, V103W, F104A, Y106I
VL: B2 VL with S28D, R31N, W32Y, R53S, T94F, W96Y
notes: as for B1
B7: F2 (IgG) (antibody, V domains shown)
VH: EVQLVESGGGLAQPGGSLRLSCAASGFTFSSYAMHWVRQAPGKGLEWVSSIKSSGGSKNYADSVKGRFTISRDNSKNTLYLQMNSLRAEDTAVYYCAKGYGASFDFWGQGTLVTVSS
VL: B2 VL with S28D, R31S, S91A, T94F
notes: as for B1
B8: E7 (IgG) (antibody, V domains shown)
VH: EVQLVESGGGLVQPGGSLRLSCAASGFTFSSYAMHWVRQAPGKGLEWVSAISSSGGSIYYADSVKGRFTISRDNSKNTLYLQMNSLRAEDTAVYYCAKQGLSFDIWGQGTLVTVSS
VL: B2 VL with R31N, A51T, T94F, W96Y
notes: as for B1
B9: A5 (IgG) (antibody, V domains shown)
VH: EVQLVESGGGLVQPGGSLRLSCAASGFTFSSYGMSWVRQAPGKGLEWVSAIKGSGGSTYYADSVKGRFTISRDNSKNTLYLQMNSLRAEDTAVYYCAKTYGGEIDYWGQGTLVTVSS
VL: B2 VL with A51T, R53T, T94F
notes: as for B1
B10: H1 (IgG) (antibody, V domains shown)
VH: B1 VH with H35S, S52R, S55G, I58T, D99S, F100Q, G101S, A102T, F104A
VL: B2 VL with R31N, A51T, T94F, W96L
notes: as for B1
B11: D2 Fab clone (phage-displayed) (Fab, V domains shown)
VH: B1 VH
VL: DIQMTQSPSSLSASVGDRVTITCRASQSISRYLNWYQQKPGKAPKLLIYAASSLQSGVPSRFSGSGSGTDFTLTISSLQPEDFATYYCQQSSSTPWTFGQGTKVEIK
B12: C5 Fab clone (phage-displayed) (Fab, V domains shown)
VH: B3 VH
VL: B2 VL with S28D, R53T, T94F, W96L
B13: F4 Fab clone (phage-displayed) (Fab, V domains shown)
VH: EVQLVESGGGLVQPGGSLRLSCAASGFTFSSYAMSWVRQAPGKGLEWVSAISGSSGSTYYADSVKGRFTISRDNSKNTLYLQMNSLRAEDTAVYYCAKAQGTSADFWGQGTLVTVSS
VL: B2 VL
B14: E7 Fab clone (phage-displayed) (Fab, V domains shown)
VH: B8 VH
VL: B2 VL with R31N, A51T, T94F, W96Y
B15: A7 Fab clone (phage-displayed) (Fab, V domains shown)
VH: B1 VH with S31D, H35S, A50G, S55G, D99A, F100I, A102S, V103W, F104A, Y106I
VL: B2 VL with S28D, R31N, W32Y, R53S, T94F, W96Y
B16: H7 Fab clone (phage-displayed) (Fab, V domains shown)
VH: B5 VH
VL: B2 VL with R31S, S91T, T94F
B17: 1E12 Fab clone (phage-displayed) (Fab, V domains shown)
VH: B4 VH
VL: B2 VL with R31N, W32Y, A51T, R53T, Q55H, T94F
B18: F2 Fab clone (phage-displayed) (Fab, V domains shown)
VH: B7 VH
VL: B2 VL with S28D, R31S, S91A, T94F
B19: A5 Fab clone (phage-displayed) (Fab, V domains shown)
VH: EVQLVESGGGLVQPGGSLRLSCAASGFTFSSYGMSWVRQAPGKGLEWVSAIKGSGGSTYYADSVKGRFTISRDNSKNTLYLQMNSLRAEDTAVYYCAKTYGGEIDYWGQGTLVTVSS
VL: B2 VL with A51T, R53T, T94F
B20: H1 Fab clone (phage-displayed) (Fab, V domains shown)
VH: B1 VH with H35S, S52R, S55G, I58T, D99S, F100Q, G101S, A102T, F104A
VL: B2 VL with R31N, A51T, T94F, W96L

Where a chain is given by its changes, count along the chain named.

The target of one experiment is T1, human chitinase-3-like protein 1 (hCHI3L1) (human, UniProt P36222 22-383).
T1 construct: Antigen used for phage display panning and ELISA; also called YKL-40; CHI3L1 antigen protein
T1 sequence (P36222 22-383 limits assumed): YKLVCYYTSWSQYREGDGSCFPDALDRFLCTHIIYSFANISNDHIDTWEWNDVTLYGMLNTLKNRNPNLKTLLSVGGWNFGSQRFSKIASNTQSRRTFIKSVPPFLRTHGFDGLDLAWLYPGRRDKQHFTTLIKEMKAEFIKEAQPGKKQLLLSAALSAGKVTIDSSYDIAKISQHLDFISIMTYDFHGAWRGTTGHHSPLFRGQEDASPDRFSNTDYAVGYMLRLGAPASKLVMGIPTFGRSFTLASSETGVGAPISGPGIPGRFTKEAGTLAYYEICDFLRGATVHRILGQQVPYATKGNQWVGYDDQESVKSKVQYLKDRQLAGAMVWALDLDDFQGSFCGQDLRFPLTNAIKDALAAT
Kind of experiment: ELISA, purified IgG on CHI3L1 antigen protein.
As to B1, the binding result was “binds”.
With B2, the binding result is on record as “binds”.
With B3, the binding result is reported as “binds”.
The same measure, in the same setting: with B4 the entry was “binds”; with B5, “binds”.
As to B6, the binding result was “binds”.
With B7, the binding result is given as “binds”.
In the case of B8, the binding result is “binds”.
As for B9, the binding result is “binds”.
As to B10, the binding result was “binds”.

A further experiment deals with T1, human chitinase-3-like protein 1 …. Kind of experiment: monoclonal phage ELISA, phage-displayed Fab on CHI3L1.
Turning to B11, the binding result is “binds”.
Turning to B12, the binding result is on record as “binds”.
Turning to B13, the binding result is reported as “binds”.
Regarding B14, the binding result is on record as “binds”.
As for B15, the binding result was “binds”.
The same measure, in the same setting: next, B16: “binds”; B17: “binds”.
B18: the binding result is “binds”.
On the same count and under the same terms, with B19 the entry was “binds”.
On the same count and under the same terms, next, B20: “binds”.
